# Results as given in patent US20180085455A1 (ISU ABXIS, published 2018).
# Positions count from the first letter of the chain named.
# B1: 472P (antibody, V domains shown)
# VH: EVQLLESGGGLVQPGGSLRLSCAASGFTFSDYDMSWVRQAPGKGLEWVSGISYDGGNTYYADSVKGRFTISRDNSKNTLYLQMNSLRAEDTAVYYCARDPSWCLQDLCYYADGMDVWGQGTLVTVSS
# VL: QSVLTQPPSASGTPGQRVTISCSGSSSNIGSNSVSWYQQLPGTAPKLLIYADSNRPSGVPDRFSGSKSGTSASLAISGLRSEDEADYYCGSWDYSLSGYVFGGGTKLTVLG
# notes: IgG1 (Selexis 085 vector, CHO); also called anti-ErbB3 lead antibody 472P
# B2: 472M1 (antibody, V domains shown)
# VH: B1 VH with D31W, M34L
# VL: B1 VL
# notes: IgG1 (Selexis 085 vector, CHO)
# B3: 472S2 (antibody, V domains shown)
# VH: B1 VH with D31W, M34L, S35A
# VL: B1 VL
# notes: as for B2
# B4: 442P (antibody, V domains shown)
# VH: EVQLLESGGGLVQPGGSLRLSCAASGFTFSDYDMSWVRQAPGKGLEWVSSIYPDSGSTYYADSVQGRFTISRDNSKNTLYLQMNSLRAEDTAVYYCAKDLHMGPEGPFDYWGQGTLVTVSS
# VL: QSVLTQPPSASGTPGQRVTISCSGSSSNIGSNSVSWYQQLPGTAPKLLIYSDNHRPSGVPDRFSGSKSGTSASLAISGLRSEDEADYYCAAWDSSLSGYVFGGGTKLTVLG
# notes: as for B2
# B5: 442M6 (antibody, V domains shown)
# VH: B4 VH with Y52E, Y59D, L100R, G103W
# VL: B1 VL with V34G, S53N, N54W, G90A, S91A, Y94S
# notes: as for B2
# B6: 442S1 (antibody, V domains shown)
# VH: B4 VH with S50T, Y52D, P53L, T58I
# VL: B1 VL with A51S, S53N, N54H, G90Q, S91G, Y94T, Y99H
# notes: as for B2
# B7: 442S5 (antibody, V domains shown)
# VH: B4 VH with S50I, Y52E, T58I
# VL: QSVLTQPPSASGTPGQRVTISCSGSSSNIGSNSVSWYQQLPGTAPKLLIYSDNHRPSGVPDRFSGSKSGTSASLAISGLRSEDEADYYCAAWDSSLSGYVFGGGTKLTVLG
# notes: as for B2
# B8: 472S1 (antibody, V domains shown)
# VH: B1 VH with D31W, S35T
# VL: B1 VL
# notes: as for B2
# B9: 472S3 (antibody, V domains shown)
# VH: B1 VH with D31W
# VL: B1 VL
# notes: as for B2
# B10: 472S4 (antibody, V domains shown)
# VH: B1 VH with D31W, M34I, S35A
# VL: B1 VL
# notes: as for B2
# B11: 442M3 (antibody, V domains shown)
# VH: B4 VH with L100R, G103W
# VL: B1 VL with V34G, S53N, N54W, G90A, S91A, Y94S
# notes: as for B2
# B12: 442M4 (antibody, V domains shown)
# VH: B4 VH with S50T, Y52D, P53L, T58I
# VL: B1 VL with A51S, S53N, N54H, G90V, S91G, Y94S, S97Y, Y99H
# notes: as for B2
# B13: 442M5 (antibody, V domains shown)
# VH: B4 VH with S50T, Y52D, P53L, T58I
# VL: B1 VL with A51S, S53N, N54H, G90H, S91A, Y94S, S97W, Y99D
# notes: as for B2
# B14: 442M7 (antibody, V domains shown)
# VH: B4 VH with S50T, Y52E, G66S
# VL: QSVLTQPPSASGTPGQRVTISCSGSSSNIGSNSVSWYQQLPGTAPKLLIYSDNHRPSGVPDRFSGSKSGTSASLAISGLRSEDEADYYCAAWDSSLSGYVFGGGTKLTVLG
# notes: as for B2
# B15: 442M8 (antibody, V domains shown)
# VH: B4 VH
# VL: B1 VL with A51S, S53N, N54H, G90H, S91A, Y94S, S97Y, G98V, Y99D
# notes: as for B2
# B16: 442M10 (antibody, V domains shown)
# VH: B4 VH with Y59D, G103W
# VL: B1 VL with S53N, N54F, G90A, S91A, Y94S
# notes: as for B2
# B17: 442M11 (antibody, V domains shown)
# VH: B4 VH with S50T, Y52E, S55Y, Y59L
# VL: B1 VL with A51S, S53N, N54H, G90H, S91A, Y94S, Y99D, V100F
# notes: as for B2
# B18: 442S2 (antibody, V domains shown)
# VH: B4 VH with Y59D
# VL: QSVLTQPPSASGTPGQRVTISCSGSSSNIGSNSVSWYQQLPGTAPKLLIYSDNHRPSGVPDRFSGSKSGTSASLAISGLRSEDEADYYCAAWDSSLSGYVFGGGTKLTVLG
# notes: as for B2
# B19: 442S4 (antibody, V domains shown)
# VH: B4 VH with Y52E, S55F, T58S, Q65R
# VL: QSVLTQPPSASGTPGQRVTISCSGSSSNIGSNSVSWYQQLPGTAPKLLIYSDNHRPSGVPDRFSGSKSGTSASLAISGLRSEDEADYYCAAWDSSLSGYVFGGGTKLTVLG
# notes: as for B2
# B20: 442S6 (antibody, V domains shown)
# VH: B4 VH with Y59D, L100R, G103W
# VL: B1 VL with V34G, S53N, N54W, G90A, S91A, Y94S
# notes: as for B2
# B21: 442S9 (antibody, V domains shown)
# VH: B4 VH with L100R, G103W
# VL: B1 VL with V34G, S53N, N54H, G90A, S91A, Y94S
# notes: as for B2
# B22: 442S10 (antibody, V domains shown)
# VH: B4 VH with L100R, G103W
# VL: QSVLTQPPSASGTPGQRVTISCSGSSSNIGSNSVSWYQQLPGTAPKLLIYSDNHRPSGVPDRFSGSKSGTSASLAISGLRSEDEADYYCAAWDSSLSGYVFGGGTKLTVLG
# notes: as for B2
# B23: 451P (antibody, V domains shown)
# VH: EVQLLESGGGLVQPGGSLRLSCAASGFTFSDYDMSWVRQAPGKGLEWVSAIYYDSGSIYYADSAKGRFTISRDNSKNTLYLQMNSLRAEDTAVYYCAKDRLFVSDSTFDYWGQGTLVTVSS
# VL: B1 VL with S26P, S31N, S35T, A51Y, N54H, Y94A, S97N
# notes: IgG1 (Selexis 085 vector, CHO); also called anti-ErbB3 lead antibody 451P
# B24: 451M1 (antibody, V domains shown)
# VH: B23 VH with V103M
# VL: B1 VL with S26P, S31N, S35T, A51Y, N54H, Y94A, S97N
# notes: as for B2
# B25: 451M2 (antibody, V domains shown)
# VH: B23 VH with V103A
# VL: B1 VL with S26P, S31N, S35T, A51Y, N54H, Y94A, S97N
# notes: as for B2
# B26: 451M3 (antibody, V domains shown)
# VH: B23 VH with D31H, V103A
# VL: B1 VL with S26P, S31N, S35T, A51Y, N54H, Y94A, S97N
# notes: as for B2
# B27: 451M4 (antibody, V domains shown)
# VH: B23 VH with D31Y, V103A
# VL: B1 VL with S26P, S31N, S35T, A51Y, N54H, Y94A, S97N
# notes: as for B2
# B28: 451M5 (antibody, V domains shown)
# VH: B23 VH with V103E
# VL: B1 VL with S26P, S31N, S35T, A51Y, N54H, Y94A, S97N
# notes: as for B2
# B29: 451M6 (antibody, V domains shown)
# VH: B23 VH with D31H, V103E
# VL: B1 VL with S26P, S31N, S35T, A51Y, N54H, Y94A, S97N
# notes: as for B2
# B30: 451M7 (antibody, V domains shown)
# VH: B23 VH with D31Y, V103E
# VL: B1 VL with S26P, S31N, S35T, A51Y, N54H, Y94A, S97N
# notes: as for B2
# Target: ErbB3 on cancer cells (UniProt P21860 20-1342, limits assumed)
# Assay: cell-based or functional assay
Binder,"Inhibition of ErbB3 phosphorylation, IC50 (HRG-stimulated MCF7 cells) [nM]","Inhibition of Akt phosphorylation, IC50 (HRG-stimulated MCF7 cells) [nM]"
B1,1.45,
B2,0.276,0.246
B3,0.148,0.195
B4,1.05,
B5,0.271,0.304
B6,0.222,0.239
B7,0.0854,0.167

# Target: T1, recombinant human ErbB3 protein (R&D systems) (human, UniProt P21860 20-643)
# T1 construct: Bought recombinant protein; also called HER3
# Assay: BLI (Octet QK384), human ErbB3 immobilized on AR2G sensor, IgG at 12.5-50 nM
# Experimental: After activation of carboxyl groups in 20 mM of 1-ethyl-3-(3-dimethylaminopropyl)carbodiimide hydrochloride (EDC) and 40 mM of N-hydroxysulfosuccinimide (sulfo-NHS) solution on an AR2G sensor (ForteBio), 10 μg/mL of human ErbB3 protein solution diluted with 10 mM of sodium acetate (pH 4.0) (ForteBio) was added to immobilize human ErbB3 protein onto the AR2G sensor. The AR2G sensor to which the human ErbB3 protein was immobilized and was treated with 1 M of ethanolamine (ForteBio) to inactivate the remaining unreacted carboxyl groups.
Binder,Kd [nM],koff [s⁻¹],kon [M⁻¹ s⁻¹]
B1,0.284,0.000508,1.79e+06
B2,0.0125,1.74e-05,1.39e+06
B8,< 0.001,3.33e-07,649000
B3,< 0.001,< 1e-07,1.07e+06
B9,< 0.001,1.43e-07,522000
B10,0.00941,1.09e-05,1.15e+06
B4,0.283,0.000352,1.25e+06
B11,0.0034,2.62e-06,771000
B12,< 0.001,< 1e-07,573000
B13,< 0.001,< 1e-07,665000
B5,0.0201,1.95e-05,969000
B14,0.0291,4.55e-05,1.56e+06
B15,0.00256,2.23e-06,870000
B16,< 0.001,< 1e-07,471000
B17,0.00543,8.09e-06,1.49e+06
B6,< 0.001,3.94e-07,522000
B18,0.0711,8.28e-05,1.17e+06
B19,0.0371,5.47e-05,1.48e+06
B7,0.0175,2.74e-05,1.57e+06
B20,< 0.001,< 1e-07,872000
B21,0.0716,5.87e-05,821000
B22,0.114,9.29e-05,814000
B23,0.0535,6.33e-05,1.18e+06
B24,0.0248,3.08e-05,1.24e+06
B25,0.0126,1.56e-05,1.24e+06
B26,< 0.001,2.3e-07,1.87e+06
B27,0.00612,1.23e-05,2.01e+06
B28,0.0217,3.29e-05,1.52e+06
B29,0.00347,4.17e-06,1.2e+06
B30,0.00492,6.63e-06,1.35e+06
